Laboratory results from patent US20220339270A1.

Columns and labels:
[1] = target: ePHF tau (tau in the form of paired helical filaments, immobilized on plate) (UniProt P10636); assay: ePHF tau ELISA; […]; rep 1
[2] = target: ePHF tau (tau in the form of paired helical filaments, immobilized on plate) (UniProt P10636); assay: ePHF tau ELISA; […]; rep 2
[3] = target: ePHF tau (tau in the form of paired helical filaments, immobilized on plate) (UniProt P10636); assay: ePHF tau ELISA; 0.5 ng/mL; rep 1
[4] = target: ePHF tau (tau in the form of paired helical filaments, immobilized on plate) (UniProt P10636); assay: ePHF tau ELISA; 0.5 ng/mL; rep 2
[5] = target: ePHF tau (tau in the form of paired helical filaments, immobilized on plate) (UniProt P10636); assay: ePHF tau ELISA; 4.1 ng/mL; rep 1
[6] = target: ePHF tau (tau in the form of paired helical filaments, immobilized on plate) (UniProt P10636); assay: ePHF tau ELISA; 4.1 ng/mL; rep 2
[7] = target: ePHF tau (tau in the form of paired helical filaments, immobilized on plate) (UniProt P10636); assay: ePHF tau ELISA; 12.3 ng/mL; rep 1
[8] = target: ePHF tau (tau in the form of paired helical filaments, immobilized on plate) (UniProt P10636); assay: ePHF tau ELISA; 12.3 ng/mL; rep 2
[9] = target: ePHF tau (tau in the form of paired helical filaments, immobilized on plate) (UniProt P10636); assay: ePHF tau ELISA; 37.0 ng/mL; rep 1
[10] = target: ePHF tau (tau in the form of paired helical filaments, immobilized on plate) (UniProt P10636); assay: ePHF tau ELISA; 37.0 ng/mL; rep 2
[11] = target: ePHF tau (tau in the form of paired helical filaments, immobilized on plate) (UniProt P10636); assay: ePHF tau ELISA; 111.1 ng/mL; rep 1
[12] = target: ePHF tau (tau in the form of paired helical filaments, immobilized on plate) (UniProt P10636); assay: ePHF tau ELISA; 111.1 ng/mL; rep 2
[13] = target: ePHF tau (tau in the form of paired helical filaments, immobilized on plate) (UniProt P10636); assay: ePHF tau ELISA; 333.3 ng/mL; rep 1
[14] = target: ePHF tau (tau in the form of paired helical filaments, immobilized on plate) (UniProt P10636); assay: ePHF tau ELISA; 333.3 ng/mL; rep 2
[15] = target: ePHF tau (tau in the form of paired helical filaments, immobilized on plate) (UniProt P10636); assay: ePHF tau ELISA; 1000.0 ng/mL; rep 1
[16] = target: ePHF tau (tau in the form of paired helical filaments, immobilized on plate) (UniProt P10636); assay: ePHF tau ELISA; 1000.0 ng/mL; rep 2
[17] = target: wild-type tau (Tau441) (human) (UniProt P10636); assay: ELISA, Tau441 on plate; antibody at […]
Chain of wild-type tau (Tau441) (human) (P10636 other isoform, or with tags, fused parts or gaps limits assumed): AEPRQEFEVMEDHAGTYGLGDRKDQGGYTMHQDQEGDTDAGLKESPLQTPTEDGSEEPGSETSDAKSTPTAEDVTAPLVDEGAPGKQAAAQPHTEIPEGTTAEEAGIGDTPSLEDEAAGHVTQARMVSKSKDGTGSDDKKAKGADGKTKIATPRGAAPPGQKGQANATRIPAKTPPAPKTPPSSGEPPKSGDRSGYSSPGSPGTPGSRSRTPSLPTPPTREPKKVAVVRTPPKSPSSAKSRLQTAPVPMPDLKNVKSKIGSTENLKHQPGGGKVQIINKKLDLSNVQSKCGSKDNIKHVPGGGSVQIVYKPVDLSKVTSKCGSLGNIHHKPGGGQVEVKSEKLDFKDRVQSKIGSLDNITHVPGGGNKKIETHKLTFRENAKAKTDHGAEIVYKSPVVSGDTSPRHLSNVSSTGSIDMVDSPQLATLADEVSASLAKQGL

[18] = target: wild-type tau (Tau441) (human) (UniProt P10636); assay: ELISA, Tau441 on plate; antibody at 4.1 ng/mL
[19] = target: wild-type tau (Tau441) (human) (UniProt P10636); assay: ELISA, Tau441 on plate; antibody at 12.3 ng/mL
[20] = target: wild-type tau (Tau441) (human) (UniProt P10636); assay: ELISA, Tau441 on plate; antibody at 37.0 ng/mL
[21] = target: wild-type tau (Tau441) (human) (UniProt P10636); assay: ELISA, Tau441 on plate; antibody at 111.1 ng/mL
[22] = target: wild-type tau (Tau441) (human) (UniProt P10636); assay: ELISA, Tau441 on plate; antibody at 333.3 ng/mL
[23] = target: wild-type tau (Tau441) (human) (UniProt P10636); assay: ELISA, Tau441 on plate; antibody at 1000.0 ng/mL
[24] = target: wild-type tau (Tau441) (human) (UniProt P10636); assay: ELISA, Tau441 on plate; antibody at 0.0 ng/mL [sic]
[25] = target: extracellular tau in the form of paired helical filaments (ePHF tau) (UniProt P10636); assay: anti-eTau ELISA of ExpiCHO supernatant, concentration of tau-binding antibody
Chain of extracellular tau in the form of paired helical filaments (ePHF tau) (P10636 other isoform, or with tags, fused parts or gaps limits assumed): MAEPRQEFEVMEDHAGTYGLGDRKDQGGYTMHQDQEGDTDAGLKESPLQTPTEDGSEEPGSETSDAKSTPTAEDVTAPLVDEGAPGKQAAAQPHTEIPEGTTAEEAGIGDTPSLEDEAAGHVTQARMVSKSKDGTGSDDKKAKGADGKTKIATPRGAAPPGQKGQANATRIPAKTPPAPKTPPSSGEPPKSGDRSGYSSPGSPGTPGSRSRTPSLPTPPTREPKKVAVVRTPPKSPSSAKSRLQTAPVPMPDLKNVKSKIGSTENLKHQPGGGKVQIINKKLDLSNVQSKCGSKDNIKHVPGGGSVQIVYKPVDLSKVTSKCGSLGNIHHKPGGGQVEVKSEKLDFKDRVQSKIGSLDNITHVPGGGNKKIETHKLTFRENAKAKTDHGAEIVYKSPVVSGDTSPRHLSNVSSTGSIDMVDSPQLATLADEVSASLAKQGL

| Substance | OD450 [1] | OD450 [2] | OD450 [3] | OD450 [4] | OD450 [5] | OD450 [6] | OD450 [7] | OD450 [8] | OD450 [9] | OD450 [10] | OD450 [11] | OD450 [12] | OD450 [13] | OD450 [14] | OD450 [15] | OD450 [16] | OD450 [17] [OD450] | OD450 [18] [OD450] | OD450 [19] [OD450] | OD450 [20] [OD450] | also measured |
| --- | --- | --- | --- | --- | --- | --- | --- | --- | --- | --- | --- | --- | --- | --- | --- | --- | --- | --- | --- | --- | --- |
| 2G9.F10 (BioLegend monoclonal murine anti-tau, 157-168; cat #824601) (antibody) | 0.1 | 0.1 | 0 | 0 | 0.3 | 0.3 | 0.7 | 0.9 | 1.6 | 2 | 2.4 | 2.8 | 2.9 | 3 | 3.1 | 3.1 |  |  |  |  |  |
| 2G9.F10 (anti-tau, 157-168; BioLegend cat #824601) (antibody) |  |  |  |  |  |  |  |  |  |  |  |  |  |  |  |  | 0.1 | 0.1 | 0.2 | 0.5 | OD450 [21]: 0.9 OD450; OD450 [22]: 1.6 OD450; OD450 [23]: 2.2 OD450; OD450 [24]: 0 OD450 |
| 43D (BioLegend monoclonal murine anti-tau, 1-100; cat #816601) (antibody) | 0.7 | 0.8 | 0.3 | 0.3 | 1.7 | 1.9 | 3 | 3.1 | 3.2 | 3.2 | 3.2 | 3.2 | 3.2 | 3.1 | 3.2 | 3.1 |  |  |  |  |  |
| 43D (anti-tau, 1-100; BioLegend cat #816601) (antibody) |  |  |  |  |  |  |  |  |  |  |  |  |  |  |  |  | 0.4 | 0.9 | 2 | 3 | OD450 [21]: 3.2 OD450; OD450 [22]: 3.3 OD450; OD450 [23]: 3.2 OD450; OD450 [24]: 0 OD450 |
| PHF1 antibody expressed from viral genome construct TAU_ITR70 (PHF-1 LF2AH) (antibody; other documents disagree on this pair) |  |  |  |  |  |  |  |  |  |  |  |  |  |  |  |  |  |  |  |  | anti-eTau ELISA antibody concentration [25]: 4280 ng/mL |
| PHF1 antibody expressed from viral genome construct TAU_ITR85 (PHF-1 HF.F2AL) (antibody; other documents disagree on this pair) |  |  |  |  |  |  |  |  |  |  |  |  |  |  |  |  |  |  |  |  | anti-eTau ELISA antibody concentration [25]: 18.8 ng/mL |
| PHF1 antibody expressed from viral genome construct TAU_ITR86 (PHF-1 LF2AH) (antibody; other documents disagree on this pair) |  |  |  |  |  |  |  |  |  |  |  |  |  |  |  |  |  |  |  |  | anti-eTau ELISA antibody concentration [25]: 1530 ng/mL |
| PHF-6 (BioLegend monoclonal murine anti-tau phospho Th231; cat #828901) (antibody) | 0.2 | 0.2 | 0.1 | 0 | 0.4 | 0.5 | 1.1 | 1.3 | 1.9 | 2.3 | 2.7 | 2.9 | 3 | 3.1 | 3.2 | 3.1 |  |  |  |  |  |
| PHF-6 (anti-tau phospho Th231; BioLegend cat #828901) (antibody) |  |  |  |  |  |  |  |  |  |  |  |  |  |  |  |  | 0.1 | 0 | 0 | 0 | OD450 [21]: 0 OD450; OD450 [22]: 0 OD450; OD450 [23]: 0.1 OD450; OD450 [24]: 0 OD450 |
| PHF-13 (BioLegend monoclonal murine anti-tau phospho Ser396; cat #829001) (antibody) | 0 | 0 | 0 | 0 | 0.1 | 0 | 0.1 | 0.1 | 0.3 | 0.3 | 0.6 | 0.7 | 1.2 | 1.2 | 1.9 | 2 |  |  |  |  |  |
| PHF-13 (anti-tau phospho Ser396; BioLegend cat #829001) (antibody) |  |  |  |  |  |  |  |  |  |  |  |  |  |  |  |  | 0 | 0 | 0.1 | 0 | OD450 [21]: 0.1 OD450; OD450 [22]: 0.1 OD450; OD450 [23]: 0.1 OD450; OD450 [24]: 0 OD450 |
| Tau5 (BioLegend monoclonal murine anti-tau, 210-230; cat #806401) (antibody) | 0.4 | 0.4 | 0.1 | 0.1 | 0.8 | 0.9 | 1.7 | 2.1 | 2.6 | 2.9 | 3.2 | 3.2 | 3.2 | 3.2 | 3.2 | 3.2 |  |  |  |  |  |
| Tau5 (anti-tau, 210-230; BioLegend cat #806401) (antibody) |  |  |  |  |  |  |  |  |  |  |  |  |  |  |  |  | 0.2 | 0.6 | 1.2 | 2.6 | OD450 [21]: 3.3 OD450; OD450 [22]: 3.3 OD450; OD450 [23]: 3.3 OD450; OD450 [24]: 0.1 OD450 |
| Tau12 (BioLegend monoclonal murine anti-tau, 6-18; cat #806501) (antibody) | 1 | 1 | 0.4 | 0.4 | 2.2 | 2.4 | 3.2 | 3.2 | 3.2 | 3.2 | 3.2 | 3.2 | 3.2 | 3.1 | 3.2 | 3.1 |  |  |  |  |  |
| Tau12 (anti-tau, 6-18; BioLegend cat #806501) (antibody) |  |  |  |  |  |  |  |  |  |  |  |  |  |  |  |  | 0.4 | 0.9 | 2 | 3.1 | OD450 [21]: 3.3 OD450; OD450 [22]: 3.3 OD450; OD450 [23]: 3.3 OD450; OD450 [24]: 0 OD450 |
| Tau46 (BioLegend monoclonal murine anti-tau, 404-421; cat #806601) (antibody) | 0.1 | 0 | 0 | 0 | 0.2 | 0.1 | 0.4 | 0.4 | 0.9 | 1 | 1.7 | 2 | 2.3 | 2.6 | 2.8 | 2.9 |  |  |  |  |  |
| Tau46 (anti-tau, 404-421; BioLegend cat #806601) (antibody) |  |  |  |  |  |  |  |  |  |  |  |  |  |  |  |  | 0.2 | 0.4 | 1 | 2 | OD450 [21]: 3 OD450; OD450 [22]: 3.2 OD450; OD450 [23]: 3.2 OD450; OD450 [24]: 0.1 OD450 |
| Tau-13 (BioLegend monoclonal murine anti-tau, 20-35; cat #835201) (antibody) | 0.6 | 0.7 | 0.2 | 0.2 | 1.4 | 1.8 | 2.8 | 3.1 | 3.2 | 3.2 | 3.2 | 3.2 | 3.2 | 3.2 | 3.2 | 3.2 |  |  |  |  |  |
| Tau-13 (anti-tau, 20-35; BioLegend cat #835201) (antibody) |  |  |  |  |  |  |  |  |  |  |  |  |  |  |  |  | 0.2 | 0.5 | 1.2 | 2.3 | OD450 [21]: 3.1 OD450; OD450 [22]: 3.2 OD450; OD450 [23]: 3.2 OD450; OD450 [24]: 0 OD450 |
